{"source": "paper PMC12511625", "key": {"[1]": {"biological_target": "S. venezuelae ParB_(SMC-) variant (TDR 132-134 to AAT, D164R) (S. venezuelae)", "settings": "scale: μmol of phosphate released by 1 μmol of ParB in one hour"}, "[2]": {"biological_target": "S. venezuelae ParB (wild type, recombinant, cleaved from GST) (S. venezuelae)", "settings": "scale: μmol of phosphate released by 1 μmol of ParB in one hour"}}, "data": [{"substance": "FLAG-SMC of S. venezuelae (natural protein)", "values": [{"measurement": "CTP hydrolysis (phosphate released) by ParB (SMC-) (2 μM) with parS-containing plasmid DNA and FLAG-SMC (1:100 molar ratio); without FLAG-SMC 46.7 +/− 3.9; said to be similar with and without SMC", "setting": "[1]", "result": 39}, {"measurement": "CTP hydrolysis (phosphate released) by ParB (2 μM) with parS-containing plasmid DNA and FLAG-SMC (0.02 μM, 1:100 molar ratio); without FLAG-SMC 65.1 +/− 2.9", "setting": "[2]", "result": 35.2}]}]}
